Test results taken from the supplement of paper PMC9112550, “Optimization of the antimicrobial peptide Bac7 by deep mutational scanning” (BMC Biology, 2022).

Test system: Escherichia coli TOP10
Test: shrunken log2 fold change of peptide-encoding DNA abundance (4.5 h post-induction vs induction); higher = less antimicrobial activity (less host growth inhibition)
Settings: time post-induction: 4.5 h; library: site-saturation at positions 5, 18, 19, 20
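Further: peptides expressed intracellularly from a pBAD plasmid library in pooled LB shake-flask culture, induced with 0.3% L-arabinose, DNA abundance read by NGS, three biological replicates, DESeq2 with apeglm shrinkage.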

Row | Sequence | shrunken log2 fold change
1 | RRIRNRPPRLPRPRPRPHYMPRP | -0.389
2 | RRIRYRPPRLPRPRPRPDAEPRP | -0.0535
3 | RRIRQRPPRLPRPRPRPWTTPRP | -0.0827
4 | RRIRDRPPRLPRPRPRPPRVPRP | 0.727
5 | RRIRWRPPRLPRPRPRPTEFPRP | -0.0793
6 | RRIRERPPRLPRPRPRPRWAPRP | 0.425
7 | RRIRYRPPRLPRPRPRPVQRPRP | -0.0294
8 | RRIRWRPPRLPRPRPRPKKDPRP | 0.223
9 | RRIRIRPPRLPRPRPRPWHEPRP | 0.0173
10 | RRIRIRPPRLPRPRPRPSPYPRP | -0.396
11 | RRIRGRPPRLPRPRPRPTWFPRP | 0.281
12 | RRIRGRPPRLPRPRPRPKCGPRP | 0.814
13 | RRIRTRPPRLPRPRPRPDPEPRP | 0.155
14 | RRIRTRPPRLPRPRPRPIFNPRP | -0.608
15 | RRIRKRPPRLPRPRPRPCSSPRP | -0.0581
16 | RRIRYRPPRLPRPRPRPNHHPRP | -1.19
17 | RRIRDRPPRLPRPRPRPEEAPRP | 2.05
18 | RRIRARPPRLPRPRPRPNKIPRP | -0.136
19 | RRIRVRPPRLPRPRPRPFWLPRP | 0.234
20 | RRIRYRPPRLPRPRPRPAHHPRP | -0.602
21 | RRIRNRPPRLPRPRPRPGRMPRP | 0.0895
22 | RRIRSRPPRLPRPRPRPVCWPRP | 0.714
23 | RRIRNRPPRLPRPRPRPFQIPRP | -0.121
24 | RRIRYRPPRLPRPRPRPAEYPRP | -0.58
25 | RRIRHRPPRLPRPRPRPPSAPRP | 0.496

Row | Sequence | shrunken log2 fold change
26 | RRIRSRPPRLPRPRPRPLRLPRP | 0.54
27 | RRIRRRPPRLPRPRPRPHRDPRP | 0.546
28 | RRIRTRPPRLPRPRPRPGARPRP | 0.212
29 | RRIRTRPPRLPRPRPRPWSYPRP | -1.86
30 | RRIRHRPPRLPRPRPRPEAKPRP | -0.0228
31 | RRIRLRPPRLPRPRPRPNICPRP | -0.132
32 | RRIRVRPPRLPRPRPRPYVHPRP | -0.104
33 | RRIRPRPPRLPRPRPRPHLWPRP | 0.181
34 | RRIRFRPPRLPRPRPRPWWPPRP | 0.0712
35 | RRIRNRPPRLPRPRPRPGSAPRP | 0.025
36 | RRIRTRPPRLPRPRPRPTDDPRP | -0.078
37 | RRIRMRPPRLPRPRPRPSRRPRP | 0.189
38 | RRIRIRPPRLPRPRPRPHAVPRP | -0.12
39 | RRIRGRPPRLPRPRPRPADIPRP | -0.229
40 | RRIRDRPPRLPRPRPRPNYPPRP | 0.0151
41 | RRIRVRPPRLPRPRPRPGIYPRP | -0.623
42 | RRIRERPPRLPRPRPRPLGDPRP | -0.0627
43 | RRIRHRPPRLPRPRPRPHEIPRP | -0.0135
44 | RRIRYRPPRLPRPRPRPPNFPRP | 0.0401
45 | RRIRNRPPRLPRPRPRPQCNPRP | -0.468
46 | RRIRFRPPRLPRPRPRPCPGPRP | -0.151
47 | RRIRNRPPRLPRPRPRPLEFPRP | -0.109
48 | RRIRLRPPRLPRPRPRPVLVPRP | -0.161
49 | RRIRTRPPRLPRPRPRPHWEPRP | -0.171
50 | RRIRVRPPRLPRPRPRPSEHPRP | -0.779

Row | Sequence | shrunken log2 fold change
51 | RRIRSRPPRLPRPRPRPLHHPRP | -0.465
52 | RRIRSRPPRLPRPRPRPSQAPRP | -0.0295
53 | RRIRLRPPRLPRPRPRPMVWPRP | 0.0457
54 | RRIRFRPPRLPRPRPRPSFTPRP | 0.587
55 | RRIRWRPPRLPRPRPRPNAEPRP | 0.181
56 | RRIRWRPPRLPRPRPRPCITPRP | -0.0175
57 | RRIRPRPPRLPRPRPRPCTGPRP | -0.00227
58 | RRIRRRPPRLPRPRPRPQPKPRP | 0.761
59 | RRIRHRPPRLPRPRPRPGDNPRP | -0.0143
60 | RRIRIRPPRLPRPRPRPVYVPRP | -1.58
61 | RRIRQRPPRLPRPRPRPMQYPRP | -0.309
62 | RRIRSRPPRLPRPRPRPSEMPRP | -0.114
63 | RRIRFRPPRLPRPRPRPWNYPRP | -0.605
64 | RRIRWRPPRLPRPRPRPNLWPRP | 0.587
65 | RRIRARPPRLPRPRPRPVYRPRP | 0.144
66 | RRIRSRPPRLPRPRPRPLRWPRP | 0.776
67 | RRIRGRPPRLPRPRPRPDARPRP | 0.34
68 | RRIRLRPPRLPRPRPRPQNPPRP | -0.263
69 | RRIRTRPPRLPRPRPRPNGVPRP | -0.0427
70 | RRIRHRPPRLPRPRPRPSDRPRP | -0.125
71 | RRIRMRPPRLPRPRPRPWTRPRP | -0.00172
72 | RRIRHRPPRLPRPRPRPTSDPRP | -0.302
73 | RRIRIRPPRLPRPRPRPWAHPRP | -0.923
74 | RRIRARPPRLPRPRPRPWATPRP | 0.494
75 | RRIRMRPPRLPRPRPRPNNAPRP | -0.0978

Row | Sequence | shrunken log2 fold change
76 | RRIRSRPPRLPRPRPRPWLGPRP | -0.092
77 | RRIRWRPPRLPRPRPRPEPVPRP | -0.0131
78 | RRIRERPPRLPRPRPRPKETPRP | 0.0319
79 | RRIRIRPPRLPRPRPRPVEVPRP | 0.0961
80 | RRIRARPPRLPRPRPRPGPDPRP | 0.455
81 | RRIRVRPPRLPRPRPRPGPIPRP | 0.0476
82 | RRIRDRPPRLPRPRPRPYALPRP | -0.051
83 | RRIRDRPPRLPRPRPRPNRVPRP | -0.023
84 | RRIRARPPRLPRPRPRPERQPRP | 1.13
85 | RRIRYRPPRLPRPRPRPRCNPRP | -0.552
86 | RRIRHRPPRLPRPRPRPVVPPRP | -0.0888
87 | RRIRRRPPRLPRPRPRPAHSPRP | 0.384
88 | RRIRYRPPRLPRPRPRPMSTPRP | -0.0213
89 | RRIRSRPPRLPRPRPRPVLMPRP | -0.0465
90 | RRIRPRPPRLPRPRPRPIFEPRP | 0.154
91 | RRIRYRPPRLPRPRPRPFYFPRP | -0.961
92 | RRIRVRPPRLPRPRPRPPTIPRP | 0.0741
93 | RRIRNRPPRLPRPRPRPCLDPRP | -0.0122
94 | RRIRKRPPRLPRPRPRPYCPPRP | 0.0231
95 | RRIRLRPPRLPRPRPRPHHVPRP | -0.272
96 | RRIRSRPPRLPRPRPRPACSPRP | 0.147
97 | RRIRQRPPRLPRPRPRPKTSPRP | -0.15
98 | RRIRARPPRLPRPRPRPMMDPRP | -0.203
99 | RRIRQRPPRLPRPRPRPAQGPRP | -0.0366
100 | RRIRDRPPRLPRPRPRPCEFPRP | 0.013

Row | Sequence | shrunken log2 fold change
101 | RRIRNRPPRLPRPRPRPGEYPRP | 0.0536
102 | RRIRFRPPRLPRPRPRPNITPRP | -0.633
103 | RRIRRRPPRLPRPRPRPHSIPRP | 0.052
104 | RRIRIRPPRLPRPRPRPLVYPRP | -0.592
105 | RRIRCRPPRLPRPRPRPENYPRP | -0.474
106 | RRIRTRPPRLPRPRPRPRYDPRP | -0.123
107 | RRIRVRPPRLPRPRPRPPRVPRP | 0.305
108 | RRIRMRPPRLPRPRPRPVIEPRP | -0.0535
109 | RRIRIRPPRLPRPRPRPAKYPRP | -0.247
110 | RRIRRRPPRLPRPRPRPECSPRP | -0.121
111 | RRIRYRPPRLPRPRPRPVCFPRP | -0.674
112 | RRIRIRPPRLPRPRPRPQKCPRP | -0.506
113 | RRIRRRPPRLPRPRPRPFRPPRP | 0.317
114 | RRIRNRPPRLPRPRPRPDPDPRP | 0.0692
115 | RRIRYRPPRLPRPRPRPWGVPRP | -0.242
116 | RRIRIRPPRLPRPRPRPVFIPRP | -0.472
117 | RRIRGRPPRLPRPRPRPMQDPRP | 0.108
118 | RRIRSRPPRLPRPRPRPVSSPRP | 0.0316
119 | RRIRGRPPRLPRPRPRPTVPPRP | 0.433
120 | RRIRMRPPRLPRPRPRPEHAPRP | 2.54
121 | RRIRYRPPRLPRPRPRPCWCPRP | -0.0193
122 | RRIRARPPRLPRPRPRPWHHPRP | -0.168
123 | RRIRCRPPRLPRPRPRPESQPRP | -0.0239
124 | RRIRVRPPRLPRPRPRPRDWPRP | 0.274
125 | RRIRHRPPRLPRPRPRPHLEPRP | -0.0228
